Patent US20180036405A1 (Regeneron, published 2018)

Legend:
[1] = biological target: EGFR on A431 epidermoid carcinoma cells (human, UniProt P00533 25-1210); test: cell-based or functional assay
[2] = biological target: T1, human monomeric EGFR (EGFR.mmh) (human, UniProt P00533 25-647); test: SPR 37C, mAb captured by anti-human Fc, EGFR.mmh analyte
T1 construct: Soluble monomeric EGFR construct
Procedure: (§1) Different concentrations of human monomeric (EGFR.mmh; SEQ ID NO:386) and dimeric (EGFR.mFc; SEQ ID NO:387) proteins were injected over the anti-EGFR monoclonal antibody captured surface at a flow rate of 50 μI/min. Antibody-antigen association was monitored for 4-5 minutes while dissociation of antigen from the captured monoclonal antibody surface was monitored for 10 min. Kinetic association (kₐ) and dissociation (kd) rate constants were determined by processing and fitting the data to a 1:1 binding model using Scrubber 2.0 curve fitting software.

[3] = biological target: T2, human dimeric EGFR (EGFR.mFc) (human); test: SPR 37C, mAb captured by anti-human Fc, EGFR.mFc analyte
T2 construct: Soluble dimeric EGFR construct
Procedure: as §1

Row | Binder | ADCC EC50 [1] | Maximum Cell Killing (%) [1] | binding result [2] | binding result [3] | Kd [2] | koff [2] | kon [2] | t1/2 [2] | Kd [3] | koff [3] | kon [3] | t1/2 [3]
1 | H1H136P (antibody, human IgG1, V domains shown, Human IgG1 Fc (H1H)) VH: EVQLVESGGGLVQPGGSLRLSCAASGFTFSSYDMSWVRQAPGKGLEWVSGISGSGDSTYYAGSVKGRFTISRDNSKNTLYLQMNSLRAEDTAVYYCAYDYSNYWDHYGMDVWGQGTTVTVSS VL: not shown | 1.49e-09 Molar | 27% | no binding | no binding | – | – | – | – | – | – | – | –
2 | H1H161P (antibody, human IgG1, V domains shown, Human IgG1 Fc (H1H)) VH: QVQLVESGGGVVQPGRSLRLSCAASGFTFSNYGMYWVRQAPGKGLEWVTFISYDGSNKNYVDSMKGRFTISRDNSKNTLYLQMNSLRVEDTAVYYCAKDRISGTPWYGMDVWGQGTTVTVSS VL: DIQMTQSPSSLSASVGDRVTITCRASQDIADYLAWFQQKPGKAPKSLIFAASSLESWVPLKFSGSGSGTDFTLTISSLQPEDFATYYCQQYSRFPITFGQGTKVEIK | 9.8e-12 Molar | 38% | – | – | 0.655 nM | 0.000321 s⁻¹ | 489000 M⁻¹ s⁻¹ | 0.6 h | 0.00159 nM | 2.76e-06 s⁻¹ | 1.73e+06 M⁻¹ s⁻¹ | 69.8 h
3 | H1H163P (antibody, human IgG1, V domains shown, Human IgG1 Fc (H1H)) VH: QVQLVESGGGVVQPGRSLRLSCAASGFTFSNYGMHWVRQAPGKGLEWVTLIEHDGSNKNYVDSVKGRFTISRDNSKNTLYLQMNSLRVEDTAVYYCAKDRITGTPWYGMDVWGQGTTVTVSS VL: DIQMTQSPSSLSASVGDRVTITCRASQDIADYLAWFQQKPGKAPKSLIFAASSLESWVPLKFSGSGSGTDFTLTISSLQPEDFATYYCQQYNRFPITFGQGTRLEIK | 2.96e-10 Molar | 48% | – | – | 0.834 nM | 0.000426 s⁻¹ | 511000 M⁻¹ s⁻¹ | 0.45 h | 0.00117 nM | 2.12e-06 s⁻¹ | 1.81e+06 M⁻¹ s⁻¹ | 90.8 h
4 | H1H153P (antibody, human IgG1, V domains shown, Human IgG1 Fc (H1H)) VH: QVQLVESGGGVVQPGKSLRLSCAASGFTFSIYGMNWVRQAPGKGLDWVAVISDDGSNKDYVDSVRGRFTISRDNSKNTLYLQMNSLSAEDTAVYYCAKDRITGTHYYGLDVWGQGTTVTVSS VL: DIQMTQSPSSLSASVGDRITITCRASQDIANYLAWFQQKPGNAPTSLIYAASILQSGVPSKFSGSGSGTDFTLTITSLQPEDFASYYCQQYNRKPWTFGRGTKVEIK | 2.65e-11 Molar | 31% | – | – | 3.09 nM | 0.000235 s⁻¹ | 76100 M⁻¹ s⁻¹ | 0.817 h | 0.0351 nM | 8.23e-06 s⁻¹ | 234000 M⁻¹ s⁻¹ | 23.4 h
5 | H1H171P (antibody, human IgG1, V domains shown, Human IgG1 Fc (H1H)) VH: QVQLVESGGGVVQPGRSLRLSCAASGFTFSIYGMNWVRQGPGKGLDWVAVISDDGSNKDYVDSVRGRFTISRDNSKNTLYLQMNSLSAEDTAVYYCAKDRITGTHYYGMDVWGQGTTVTVSS VL: DIQMTQSPSSLSASVGDRITITCRASQDIANYLAWFQQKPGNAPTSLIYAASILQSGVPSKFSGSGSGTDFTLTITSLQPEDFASYYCQQYNRKPWTFGRGTKVEIK | 8.94e-13 Molar | 27% | – | – | 14.2 nM | 0.00113 s⁻¹ | 79400 M⁻¹ s⁻¹ | 0.167 h | 0.103 nM | 3.48e-05 s⁻¹ | 339000 M⁻¹ s⁻¹ | 5.53 h
6 | H1H145P (antibody, human IgG1, V domains shown, Human IgG1 Fc (H1H)) VH: EVQLVESGGGVVQPGGSLRLSCAASGFTFDDYAMHWVRQAPGKGLEWVSLISGDGGSTYYADSVKGRFTISRDNSKNSLYLQMNSLRTEDTALYYCAKNYDSSGYYYPYYYYYGMDVWGQGTTVTVSS VL: not shown | – | 0% | – | – | 1.43 nM | 0.000195 s⁻¹ | 137000 M⁻¹ s⁻¹ | 0.983 h | 0.232 nM | 5.86e-05 s⁻¹ | 252000 M⁻¹ s⁻¹ | 3.28 h
7 | H1H155P (antibody, human IgG1, V domains shown, Human IgG1 Fc (H1H)) VH: QVQLVESGGGVVQPGRSLRLSCAASGFTFSIYGMHWVRQAPGKGLEWVTVISDDGSKKYYVDSVKGRFTLSRDNSKNTLYLQMNSLRAEDTAVYYCARDRITGTNWYGMDVWGQGTTVTVSS VL: DIQMTQSPSSLSASVGDRVTITCRASQDISNYLAWFQQKPGKAPKSLIFAASSLQSGGPSKFSGSGSGTDFTLTISSLQPEDFATYYCQQYNRYPFTFGPGTKVDIK | 1.67e-11 Molar | 30% | – | – | 0.962 nM | 0.000169 s⁻¹ | 176000 M⁻¹ s⁻¹ | 1.13 h | 0.321 nM | 0.000106 s⁻¹ | 329000 M⁻¹ s⁻¹ | 1.82 h
8 | H1H157P (antibody, human IgG1, V domains shown, Human IgG1 Fc (H1H)) VH: QVQLVESGGGVVQPGRSLRLTCKASGFTFSIYGINWVRQASGKGLDWVAVISDDGSDKKYADSVKGRFTISRDNSKNTVYLEMSRLRSEDTAVYFCAKDRFTGNHYYGMDVWGQGTTVTVSS VL: DIQMTQSPSSLSASVGDRVSITCRASQDISDYLAWFQQKPGKAPKSLIYAASILQNGVPSRFSGSGSGTDFTLTISSLQPEDFALYYCHQYNRFPWTFGQGTKVEIK | 2.27e-13 Molar | 36% | no binding | no binding | – | – | – | – | – | – | – | –
9 | H1H158P (antibody, human IgG1, V domains shown, Human IgG1 Fc (H1H)) VH: QVQLVESGGGVVQPGGSLRLSCAASGFTFSIYGIHWVRQAPGKGLEWVAVISDDGSNKKYADSVKGRFTISRDNSKNTLYLQMNSLRAEDTAIFYCAKDRITGTHYYGMDVWGQGTTVTVSS VL: DIQMTQSPSSLSASVGDRVSITCRASQDISNYLAWFQQKPGKAPKSLIYAASSLQSGVPSKFSGSGSGIEFTLTISSLQPEDFSTYYCHQYNRFPWTFGQGTKVEIK | 2.32e-12 Molar | 28% | – | – | 5.9 nM | 0.000773 s⁻¹ | 131000 M⁻¹ s⁻¹ | 0.25 h | 0.0241 nM | 9.84e-06 s⁻¹ | 408000 M⁻¹ s⁻¹ | 19.6 h
10 | H1H159P (antibody, human IgG1, V domains shown, Human IgG1 Fc (H1H)) VH: EVQLVESGGGLVQPGGSLRLSCAASRFTFTNYWMSWVRQAPGKGLEWVAKIKQDGSEKYYLDSVKDRFTISRDNAKNSLYLQMNSLRAEDTAVYYCASSSSWYDYYYGMDVWGHGTTVTVSS VL: EIVLTQSPDFQSVTPKEKVTITCRASQSIGTNLHWYQQRPDQSPKLLIKFASQSFSGVPSRFSGSGSGTDFTLTINSLEAEDAATYYCHQTNFLPHTFGGGTKVEIKR | 2.69e-09 Molar | 60% | – | – | 0.682 nM | 0.000325 s⁻¹ | 476000 M⁻¹ s⁻¹ | 0.6 h | 0.00344 nM | 5.63e-06 s⁻¹ | 1.64e+06 M⁻¹ s⁻¹ | 34.2 h
11 | H1H169P (antibody, human IgG1, V domains shown, Human IgG1 Fc (H1H)) VH: EVQLVESGGGLVQPGGSLRLSCAASRFTFSTYWMSWVRQAPGKGLEWVAKIKQDGSEKYYLDSVKDRFTISRDNAKNSLYLQMNSLRAEDTAVYYCASSITWYDYYYGMDVWGHGTTVTVSS VL: EIVLTQSPDFQSVTPKEKVTITCRASQSIGSNLHWYQQKPDQSPNLLIKFASQSFSGVPSRFSGSGSGTDFTLTINSLEAEDAATYYCHQTNFLPHTFGGGTKVEIK | 4.81e-09 Molar | 27% | – | – | 1.31 nM | 0.000869 s⁻¹ | 665000 M⁻¹ s⁻¹ | 0.217 h | 0.00736 nM | 1.69e-05 s⁻¹ | 2.29e+06 M⁻¹ s⁻¹ | 11.4 h
